Molecular target: T1, FcγRIIb extracellular domain with C-terminal His tag (human, UniProt P31994 43-217)
T1 construct: extracellular domain; For crystals it was expressed with kifunensine and trimmed with Endo F1; also called FcgRIIb; FcγRIIb extracellular region
T1 sequence (looked up): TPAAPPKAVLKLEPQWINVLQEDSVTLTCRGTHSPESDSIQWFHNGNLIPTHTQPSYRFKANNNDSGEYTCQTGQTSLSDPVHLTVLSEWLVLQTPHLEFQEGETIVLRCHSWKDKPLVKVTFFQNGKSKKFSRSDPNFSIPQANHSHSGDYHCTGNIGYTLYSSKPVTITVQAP
Assay: SPR (Biacore)

B1: variant resulting from adding S267E to IL6R-BP267/IL6R-L (antibody, human IgG1, kappa)
heavy: QVQLQESGPGLVKPSETLSLTCAVSGHSISHDHAWSWVRQPPGEGLEWIGFISYSGITNYNPSLQGRVTISRDNSKNTLYLQMNSLRAEDTAVYYCARSLARTTAMDYWGEGTLVTVSSASTKGPSVFPLAPSSKSTSGGTAALGCLVKDYFPEPVTVSWNSGALTSGVHTFPAVLQSSGLYSLSSVVTVPSSSLGTQTYICNVNHKPSNTKVDKKVEPKSCDKTHTCPPCPAPDLLGDDSVFLFPPKPKDTLMISRTPEVTCVVVDVEEEDGEVKFNWYVDGVEVHNAKTKPREEQYNSTYRVVSVLTVLHQDWLNGKEYKCKVSNKALPAPIEKTISKAKGQPREPQVYTLPPSRDELTKNQVSLTCLVKGFYPSDIAVEWESNGQPENNYKTTPPVLDSDGSFFLYSKLTVDKSRWQQGNVFSCSVMHEALHNHYTQESLSLSP
light: not shown
  binding result: binds

B2: IL6R-AP002/IL6R-BP256/IL6R-L (antibody, human IgG1, kappa)
heavy 1: QVQLQESGPGLVKPSETLSLTCAVSGHSISHDHAWSWVRQPPGEGLEWIGFISYSGITNYNPSLQGRVTISRDNSKNTLYLQMNSLRAEDTAVYYCARSLARTTAMDYWGEGTLVTVSSASTKGPSVFPLAPSSKSTSGGTAALGCLVKDYFPEPVTVSWNSGALTSGVHTFPAVLQSSGLYSLSSVVTVPSSSLGTQTYICNVNHKPSNTKVDKKVEPKSCDKTHTCPPCPAPDLLGDDSVFLFPPKPKDTLMISRTPEVTCVVVDVSDEDGEVKFNWYVDGVEVHNAKTKPREEQYNSTYRVVSVLTVLHQDWLNGKEYKCKVSNKALPRPIEKTISKAKGQPREPQVYTLPPSRKELTKNQVSLTCLVKGFYPSDIAVEWESNGQPENNYKTTPPVLDSDGSFFLYSKLTVDKSRWQQGNVFSCSVMHEALHNRYTQKSLSLSP
heavy 2: QVQLQESGPGLVKPSETLSLTCAVSGHSISHDHAWSWVRQPPGEGLEWIGFISYSGITNYNPSLQGRVTISRDNSKNTLYLQMNSLRAEDTAVYYCARSLARTTAMDYWGEGTLVTVSSASTKGPSVFPLAPSSKSTSGGTAALGCLVKDYFPEPVTVSWNSGALTSGVHTFPAVLQSSGLYSLSSVVTVPSSSLGTQTYICNVNHKPSNTKVDKKVEPKSCDKTHTCPPCPAPDLLGDDDVFLFPPKPKDTLMISRTPEVTCVVVDVSDEDGEVKFNWYVDGVEVHNAKTKPREEQYNSTYRVVSVLTVLHQDWLNGKEYKCKVSNKALPRPIEKTISKAKGQPREPQVYTLPPSRDELTKNQVSLTCLVKGFYPSDIAVEWESNGQPENNYKTTPPVLDSDGSFFLYSKLTVDKSRWQQGNVFSCSVMHEALHNHYTQESLSLSP
light: not shown
notes: Heterodimer: S239D in one chain only
  binding result: binds

B3: variant resulting from adding V266F to IL6R-BP267/IL6R-L (antibody, human IgG1, kappa)
heavy: QVQLQESGPGLVKPSETLSLTCAVSGHSISHDHAWSWVRQPPGEGLEWIGFISYSGITNYNPSLQGRVTISRDNSKNTLYLQMNSLRAEDTAVYYCARSLARTTAMDYWGEGTLVTVSSASTKGPSVFPLAPSSKSTSGGTAALGCLVKDYFPEPVTVSWNSGALTSGVHTFPAVLQSSGLYSLSSVVTVPSSSLGTQTYICNVNHKPSNTKVDKKVEPKSCDKTHTCPPCPAPDLLGDDSVFLFPPKPKDTLMISRTPEVTCVVVDFSEEDGEVKFNWYVDGVEVHNAKTKPREEQYNSTYRVVSVLTVLHQDWLNGKEYKCKVSNKALPAPIEKTISKAKGQPREPQVYTLPPSRDELTKNQVSLTCLVKGFYPSDIAVEWESNGQPENNYKTTPPVLDSDGSFFLYSKLTVDKSRWQQGNVFSCSVMHEALHNHYTQESLSLSP
light: not shown
  binding result: binds

B4: variant resulting from adding V264I to IL6R-BP267/IL6R-L (antibody, human IgG1, kappa)
heavy: QVQLQESGPGLVKPSETLSLTCAVSGHSISHDHAWSWVRQPPGEGLEWIGFISYSGITNYNPSLQGRVTISRDNSKNTLYLQMNSLRAEDTAVYYCARSLARTTAMDYWGEGTLVTVSSASTKGPSVFPLAPSSKSTSGGTAALGCLVKDYFPEPVTVSWNSGALTSGVHTFPAVLQSSGLYSLSSVVTVPSSSLGTQTYICNVNHKPSNTKVDKKVEPKSCDKTHTCPPCPAPDLLGDDSVFLFPPKPKDTLMISRTPEVTCVVIDVSEEDGEVKFNWYVDGVEVHNAKTKPREEQYNSTYRVVSVLTVLHQDWLNGKEYKCKVSNKALPAPIEKTISKAKGQPREPQVYTLPPSRDELTKNQVSLTCLVKGFYPSDIAVEWESNGQPENNYKTTPPVLDSDGSFFLYSKLTVDKSRWQQGNVFSCSVMHEALHNHYTQESLSLSP
light: not shown
  binding result: binds

B5: variant resulting from adding V266M to IL6R-BP267/IL6R-L (antibody, human IgG1, kappa)
heavy: QVQLQESGPGLVKPSETLSLTCAVSGHSISHDHAWSWVRQPPGEGLEWIGFISYSGITNYNPSLQGRVTISRDNSKNTLYLQMNSLRAEDTAVYYCARSLARTTAMDYWGEGTLVTVSSASTKGPSVFPLAPSSKSTSGGTAALGCLVKDYFPEPVTVSWNSGALTSGVHTFPAVLQSSGLYSLSSVVTVPSSSLGTQTYICNVNHKPSNTKVDKKVEPKSCDKTHTCPPCPAPDLLGDDSVFLFPPKPKDTLMISRTPEVTCVVVDMSEEDGEVKFNWYVDGVEVHNAKTKPREEQYNSTYRVVSVLTVLHQDWLNGKEYKCKVSNKALPAPIEKTISKAKGQPREPQVYTLPPSRDELTKNQVSLTCLVKGFYPSDIAVEWESNGQPENNYKTTPPVLDSDGSFFLYSKLTVDKSRWQQGNVFSCSVMHEALHNHYTQESLSLSP
light: not shown
  binding result: binds

B6: IL6R-AP009/IL6R-BP259/IL6R-L (antibody, human IgG1, kappa)
heavy 1: QVQLQESGPGLVKPSETLSLTCAVSGHSISHDHAWSWVRQPPGEGLEWIGFISYSGITNYNPSLQGRVTISRDNSKNTLYLQMNSLRAEDTAVYYCARSLARTTAMDYWGEGTLVTVSSASTKGPSVFPLAPSSKSTSGGTAALGCLVKDYFPEPVTVSWNSGALTSGVHTFPAVLQSSGLYSLSSVVTVPSSSLGTQTYICNVNHKPSNTKVDKKVEPKSCDKTHTCPPCPAPDLLGDDSVFLFPPKPKDTLMISRTPEVTCVVVDVSDEDGEVKFNWYVDGVEVHNAKTKPREEQDNSTYRVVSVLTVLHQDWLNGKEYKCKVSNKALPRPIEKTISKAKGQPREPQVYTLPPSRKELTKNQVSLTCLVKGFYPSDIAVEWESNGQPENNYKTTPPVLDSDGSFFLYSKLTVDKSRWQQGNVFSCSVMHEALHNRYTQKSLSLSP
heavy 2: QVQLQESGPGLVKPSETLSLTCAVSGHSISHDHAWSWVRQPPGEGLEWIGFISYSGITNYNPSLQGRVTISRDNSKNTLYLQMNSLRAEDTAVYYCARSLARTTAMDYWGEGTLVTVSSASTKGPSVFPLAPSSKSTSGGTAALGCLVKDYFPEPVTVSWNSGALTSGVHTFPAVLQSSGLYSLSSVVTVPSSSLGTQTYICNVNHKPSNTKVDKKVEPKSCDKTHTCPPCPAPDLLGDDDVFLFPPKPKDTLMISRTPEVTCVVVDVSDEDGEVKFNWYVDGVEVHNAKTKPREEQDNSTYRVVSVLTVLHQDWLNGKEYKCKVSNKALPRPIEKTISKAKGQPREPQVYTLPPSRDELTKNQVSLTCLVKGFYPSDIAVEWESNGQPENNYKTTPPVLDSDGSFFLYSKLTVDKSRWQQGNVFSCSVMHEALHNHYTQESLSLSP
light: not shown
notes: as for B2
  binding result: binds

B7: IL6R-BP567/IL6R-L (antibody, human IgG1, kappa)
heavy: QVQLQESGPGLVKPSETLSLTCAVSGHSISHDHAWSWVRQPPGEGLEWIGFISYSGITNYNPSLQGRVTISRDNSKNTLYLQMNSLRAEDTAVYYCARSLARTTAMDYWGEGTLVTVSSASTKGPSVFPLAPSSKSTSGGTAALGCLVKDYFPEPVTVSWNSGALTSGVHTFPAVLQSSGLYSLSSVVTVPSSSLGTQTYICNVNHKPSNTKVDKKVEPKSCDKTHTCPPCPAPDLLGGDSVFLFPPKPKDTLMISRTPEVTCVVIDVAEEDGEVKFNWYVDGVEVHNAKTKPREEQDNSTYRVVSVLTVLHQDWLNGKEYKCKVSNKALPAPIEKTISKAKGQPREPQVYTLPPSRDELTKNQVSLTCLVKGFYPSDIAVEWESNGQPENNYKTTPPVLDSDGSFFLYSKLTVDKSRWQQGNVFSCSVMHEALHNHYTQESLSLSP
light: not shown
  binding relative to IL6R-B3/IL6R-L: ≥ 100 times

B8: IL6R-AP002/IL6R-BP257/IL6R-L (antibody, human IgG1, kappa)
heavy 1: QVQLQESGPGLVKPSETLSLTCAVSGHSISHDHAWSWVRQPPGEGLEWIGFISYSGITNYNPSLQGRVTISRDNSKNTLYLQMNSLRAEDTAVYYCARSLARTTAMDYWGEGTLVTVSSASTKGPSVFPLAPSSKSTSGGTAALGCLVKDYFPEPVTVSWNSGALTSGVHTFPAVLQSSGLYSLSSVVTVPSSSLGTQTYICNVNHKPSNTKVDKKVEPKSCDKTHTCPPCPAPDLLGDDSVFLFPPKPKDTLMISRTPEVTCVVVDVSDEDGEVKFNWYVDGVEVHNAKTKPREEQYNSTYRVVSVLTVLHQDWLNGKEYKCKVSNKALPRPIEKTISKAKGQPREPQVYTLPPSRKELTKNQVSLTCLVKGFYPSDIAVEWESNGQPENNYKTTPPVLDSDGSFFLYSKLTVDKSRWQQGNVFSCSVMHEALHNRYTQKSLSLSP
heavy 2: QVQLQESGPGLVKPSETLSLTCAVSGHSISHDHAWSWVRQPPGEGLEWIGFISYSGITNYNPSLQGRVTISRDNSKNTLYLQMNSLRAEDTAVYYCARSLARTTAMDYWGEGTLVTVSSASTKGPSVFPLAPSSKSTSGGTAALGCLVKDYFPEPVTVSWNSGALTSGVHTFPAVLQSSGLYSLSSVVTVPSSSLGTQTYICNVNHKPSNTKVDKKVEPKSCDKTHTCPPCPAPDLLGDDEVFLFPPKPKDTLMISRTPEVTCVVVDVSDEDGEVKFNWYVDGVEVHNAKTKPREEQYNSTYRVVSVLTVLHQDWLNGKEYKCKVSNKALPRPIEKTISKAKGQPREPQVYTLPPSRDELTKNQVSLTCLVKGFYPSDIAVEWESNGQPENNYKTTPPVLDSDGSFFLYSKLTVDKSRWQQGNVFSCSVMHEALHNHYTQESLSLSP
light: not shown
notes: Heterodimer: S239E in one chain only
  binding result: binds

B9: variant resulting from adding S267G to IL6R-BP267/IL6R-L (antibody, human IgG1, kappa)
heavy: QVQLQESGPGLVKPSETLSLTCAVSGHSISHDHAWSWVRQPPGEGLEWIGFISYSGITNYNPSLQGRVTISRDNSKNTLYLQMNSLRAEDTAVYYCARSLARTTAMDYWGEGTLVTVSSASTKGPSVFPLAPSSKSTSGGTAALGCLVKDYFPEPVTVSWNSGALTSGVHTFPAVLQSSGLYSLSSVVTVPSSSLGTQTYICNVNHKPSNTKVDKKVEPKSCDKTHTCPPCPAPDLLGDDSVFLFPPKPKDTLMISRTPEVTCVVVDVGEEDGEVKFNWYVDGVEVHNAKTKPREEQYNSTYRVVSVLTVLHQDWLNGKEYKCKVSNKALPAPIEKTISKAKGQPREPQVYTLPPSRDELTKNQVSLTCLVKGFYPSDIAVEWESNGQPENNYKTTPPVLDSDGSFFLYSKLTVDKSRWQQGNVFSCSVMHEALHNHYTQESLSLSP
light: not shown
  binding result: binds
